Reference: patent US20210315964A1 (University of Pennsylvania, published 2021)

T1: recombinant human peroxiredoxin 6 (hPrdx6) (human, UniProt P30041 1-224, limits assumed)
T1 sequence (looked up): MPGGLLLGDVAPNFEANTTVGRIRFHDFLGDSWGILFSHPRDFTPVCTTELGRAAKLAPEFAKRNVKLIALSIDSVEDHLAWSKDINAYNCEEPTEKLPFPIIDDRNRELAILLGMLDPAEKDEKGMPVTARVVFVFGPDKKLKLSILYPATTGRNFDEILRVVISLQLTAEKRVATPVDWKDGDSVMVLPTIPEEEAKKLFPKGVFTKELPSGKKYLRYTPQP


biological target: T1, recombinant human peroxiredoxin 6 …; assay: cell-based or functional assay

Row | Binder | aiPLA2 activity of recombinant hPrdx6 with peptide (hPrdx6 only, no peptide: 93.4) [nmol/min/mg prot.]
1 | DEELQTELYEIK [SEQ ID NO: 15 … (14)] | 102
2 | QTELYEIKHQIL [SEQ ID NO: 11 QTELYEIKHQIL (12)] | 31.5
3 | ELYEIKHQIL [SEQ ID NO: 12 ELYEIKHQIL (10)] | 28.6
4 | DEELQTELYEIKHQIL [PIP-3 (rat, mouse, 16-mer) DEELQTELYEIKHQIL] | 32
5 | DEELQTELYEI [SEQ ID NO: 16 … (12)] | 95.7
6 | DEELQATLHDFRHQIL [PIP-1 (human, 16-mer) DEELQATLHDFRHQIL] | 45

Now from value to binder:

Row | aiPLA2 activity of recombinant hPrdx6 with peptide (hPrdx6 only, no peptide: 93.4) [nmol/min/mg prot.] | Binder
7 | 94.4 | YEIKHQIL [SEQ ID NO: 13 YEIKHQIL (8)]
8 | 97.1 | IKHQIL [SEQ ID NO: 14 IKHQIL (6)]
9 | 33.2 | ELQTELYEIKHQIL [SEQ ID NO: 10 ELQTELYEIKHQIL (14)]

biological target: T1, recombinant human peroxiredoxin 6 …; assay: cell-based or functional assay; remark: another data set of the same source

Row | Binder | aiPLA2 activity of human recombinant Prdx6 with peptide (no peptide, hPrdx6 only: 99.91) [nmol/min/mg prot.]
10 | LHDFRHQIL [PIP-2 LHDFRHQIL] | 26.2
11 | LHDFRHQLL [SN028 LHDFRHQLL] | 102
12 | LHDFRPQIL [SN025 LHDFRPQIL] | 101
13 | LFKLEHQIL [SN023 LFKLEHQIL] | 98
14 | LHDFRDQIL [SN024 LHDFRDQIL] | 102
15 | LKIEYHQIL [SN019 LKIEYHQIL] | 97.7
16 | LHEFKHQIL [SN022 LHEFKHQIL] | 99.4
17 | LHDFRHNIL [SN026 LHDFRHNIL] | 99

Other lines, results leading:

Row | aiPLA2 activity of human recombinant Prdx6 with peptide (no peptide, hPrdx6 only: 99.91) [nmol/min/mg prot.] | Binder
18 | 99 | LRFDHHQIL [SN020 LRFDHHQIL]
19 | 97.3 | LHDFRHIIL [SN029 (row of SEQ ID NO: 31) LHDFRHIIL]
20 | 29.7 | LYDIRHQIL [PIP-5 LYDIRHQIL]
21 | 100 | LHDFRHQTL [SN029 (row of SEQ ID NO: 33) LHDFRHQTL]

biological target: T1, recombinant human peroxiredoxin 6 …; assay: cell-based or functional assay; remark: another data set of the same source

Row | Binder | aiPLA2 activity of human recombinant protein with peptide (hPrdx6 only: 92.0) [nmol/min/mg prot.]
22 | LHDFRHQIL [PIP-2 LHDFRHQIL] | 29.9
23 | DEELQTELYEIKHQIL [PIP-3 (rat, mouse, 16-mer) DEELQTELYEIKHQIL] | 32

Continued, values first:

Row | aiPLA2 activity of human recombinant protein with peptide (hPrdx6 only: 92.0) [nmol/min/mg prot.] | Binder
24 | 31.5 | TLHDFRHQI [SEQ ID NO: 19 … (10)]
25 | 32.3 | LYEIKHQIL [PIP-4 LYEIKHQIL]
